In the RNAGym collection of RNA variant scans (doi:10.1073/pnas.2313332121):

B1: TPR t1 (parent)
chain: GACCAAUCUGCCCUCAGAGCUCGAGAACAUCUUCGGAUGCAGAGGAGGCAGGCUUCGGUGGCGCGAUAGCGCCAACGUCCUCAACCUCCAAUGCAUCCCACCACAUGAUGAUGCCUGAAGAGCCUUGGUUUUUUG

Variants of: B1
Assay: polymerase ribozyme fitness, log enrichment relative to wild type (log ratio); higher = more active; in vitro selection for triplet polymerase activity
How it was run: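 For each subunit of a heterodimeric triplet polymerase ribozyme, a mutant library was built by PCR and transcribed, then taken through a single in vitro selection round in triplicate. Selection involved annealing to a biotinylated primer, the partner subunit and triplets, incubation frozen at −7 °C, gel excision of extended constructs, capture on streptavidin beads and RT-PCR. Genotypes were retained after Illumina sequencing of inputs and outputs only with ≥10 input reads and ≥1 read in each output. Fitness is defined as the logarithm of a genotype's enrichment relative to wild-type enrichment, using inverse-variance-weighted averages across replicates, with the logarithm taken to base 2.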

Compared with C3G A6U, A2U U130C is higher in “polymerase ribozyme fitness (log ratio)” value: -4.02 for the first, -0.66 for the second.

Compared with C3G C40G, C3A C22G A37G G71A A111G is lower in “polymerase ribozyme fitness (log ratio)” value: -1.82 for the first, -6.05 for the second.

Compared with A2U C56A A83G, C3G C12A C114A G128C is higher in “polymerase ribozyme fitness (log ratio)” value: -4.24 for the first, -3.31 for the second.

First: A2U C70U G128C
Second: C3A C64G C76U G110C
The “polymerase ribozyme fitness (log ratio)” value of the first is higher: -2.25 for the first, -6.8 for the second.

Compared with C3G U9A C72A G107U, C3A C15A A41U G58C G71U U92G C114G is higher in “polymerase ribozyme fitness (log ratio)” value: -6.54 for the first, -5.03 for the second.

Going from C3G G44A G47A C86G G120A to C3G G47U C64A A90C C104U G113A, the “polymerase ribozyme fitness (log ratio)” value falls from -4.34 to -6.9.

Going from C3U C11U A50U C64U U81G C102U G128A to C3U C8A A16G A43C C79A C88U C124A U125A U132C, the “polymerase ribozyme fitness (log ratio)” value rises from -3.47 to -3.17.

First: C3U C11G U21A U129A
Second: A2U C72U C101G C124A
The “polymerase ribozyme fitness (log ratio)” value of the first is higher: -0.924 for the first, -2.06 for the second.

Going from C3A A6C C12A A50G C56G to C3A A43U G60C C82G, the “polymerase ribozyme fitness (log ratio)” value falls from -3.05 to -5.1.

First: C3A G10U U129C
Second: C3G C22U G61C U109A
The “polymerase ribozyme fitness (log ratio)” value of the first is higher: -1.94 for the first, -6.73 for the second.

Going from C3U C11U U54G to C3A C4G U7A U21A C40U G47U C114U, the “polymerase ribozyme fitness (log ratio)” value falls from -1.05 to -3.96.

Compared with A2U U9A A26C G60A G117U, C3G C73U is higher in “polymerase ribozyme fitness (log ratio)” value: -6.53 for the first, -2.12 for the second.

First: C3A C8G G63C A95C G117A G128U
Second: C3A U14G G69U C70U U106C
The “polymerase ribozyme fitness (log ratio)” value of the first is higher: -0.17 for the first, -4.86 for the second.

Compared with A2U G110C U131A, C3G C70U is higher in “polymerase ribozyme fitness (log ratio)” value: -5.15 for the first, -2.07 for the second.

Compared with C3U A43G U55G A111G U126A, A2U C56U is higher in “polymerase ribozyme fitness (log ratio)” value: -4.64 for the first, -2.27 for the second.

A2U C13U and C3A C123A are within 0.2 log units of each other in “polymerase ribozyme fitness (log ratio)” value: -1.36 for the first, -1.18 for the second.

Going from C3A C123G to C3A C123U, the “polymerase ribozyme fitness (log ratio)” value falls from 0.176 to -1.48.

Compared with C3U C4G, C3A C8G A74U A95C G117A G128U is higher in “polymerase ribozyme fitness (log ratio)” value: -2.81 for the first, -0.293 for the second.

First: C3A U9G C98U
Second: C3U A27U
The “polymerase ribozyme fitness (log ratio)” value of the first is higher: -1.51 for the first, -4.17 for the second.

Compared with C3U A27G, A2U U106A U129C is higher in “polymerase ribozyme fitness (log ratio)” value: -2.38 for the first, -1.74 for the second.

Going from A2U G57C to C3U A68G, the “polymerase ribozyme fitness (log ratio)” value falls from -2.3 to -3.05.

Compared with C3U C11U G48A G117C C123G U129C U133C, A2U G69U C102U G113A U129A is higher in “polymerase ribozyme fitness (log ratio)” value: -2.05 for the first, -0.898 for the second.

Compared with A2U C73A U130A U133G, C3A G52A C70U C104A C124G is higher in “polymerase ribozyme fitness (log ratio)” value: -2.47 for the first, -2.12 for the second.

C3A A5U C11G G36U G45U and C3A C11G are within 0.2 log units of each other in “polymerase ribozyme fitness (log ratio)” value: -1.02 for the first, -1.08 for the second.

First: C3G A5C G48U U54C U92G
Second: C3A C15A C53U G63C
The “polymerase ribozyme fitness (log ratio)” value of the first is lower: -4.45 for the first, -3.45 for the second.

Compared with C3G A50U C94G, A2U G19A is higher in “polymerase ribozyme fitness (log ratio)” value: -4.4 for the first, -4.15 for the second.

Compared with A2U C12U U78C U87G U112G, A2U G77A is higher in “polymerase ribozyme fitness (log ratio)” value: -3.07 for the first, -2.8 for the second.

Going from C3G C13A A18G G25U G63A A111C A118G to A2U C123A, the “polymerase ribozyme fitness (log ratio)” value rises from -6.44 to -1.63.

Going from C3G A111C to C3A C34A G45C C114U, the “polymerase ribozyme fitness (log ratio)” value falls from -1.69 to -6.33.

Going from C3G G61U to C3G G61C, the “polymerase ribozyme fitness (log ratio)” value falls from -1.85 to -3.19.

Going from C3A C4U A46U C114U to C3U C8A C20U C53U G58A G77A A90G C101U, the “polymerase ribozyme fitness (log ratio)” value rises from -4.9 to -3.06.

First: A2U C64U
Second: C3A U21C U96C C124G
The “polymerase ribozyme fitness (log ratio)” value of the first is lower: -2 for the first, 0.974 for the second.

First: A2U U9A C11U A18C C20A C31G G77A A83G C97A G113U C124U
Second: C3A C11A A16U C49A G117A
The “polymerase ribozyme fitness (log ratio)” value of the first is lower: -7.17 for the first, -4.16 for the second.

Going from C3A U21A G120C to A2U C56A G63A C104A U112A, the “polymerase ribozyme fitness (log ratio)” value falls from -1.39 to -5.33.

First: C3G G61U C104A
Second: C3A G44C U112G C124U U125C
The “polymerase ribozyme fitness (log ratio)” value of the first is lower: -3.47 for the first, -1.64 for the second.

Going from C3A C70U to A2U G10U G45A G48A C102U C114U G120C C123U, the “polymerase ribozyme fitness (log ratio)” value falls from -1.64 to -4.53.

Compared with C3U C11U G42C C56A A74C A105U G120C, C3A C56U G61U G113U G120U U126C is higher in “polymerase ribozyme fitness (log ratio)” value: -6.23 for the first, -5.49 for the second.

Compared with A2U G52A C56A C82A A91G A121C, C3G C8G A43U C72U A90C is higher in “polymerase ribozyme fitness (log ratio)” value: -2.84 for the first, -2.6 for the second.

First: A2U U129A
Second: C3A C73G A119U U129C
The “polymerase ribozyme fitness (log ratio)” value of the first is higher: 0.107 for the first, -1.93 for the second.

Compared with C3G A27G C53U C72G C79A C98G U116C, A2U G45A G69U C124A is higher in “polymerase ribozyme fitness (log ratio)” value: -6.51 for the first, -0.409 for the second.

A2U C56A G63U U106A C115G and C3G C4G G25U C28U C34U G71U G107U U112G C114A A121G are the same in “polymerase ribozyme fitness (log ratio)” value: -6.59 for the first, -6.59 for the second.

In the case of C3G C49U C72U U131A, the “polymerase ribozyme fitness (log ratio)” value is reported as -4.85.
